What was measured:
[1] = target: cdPadR1 (Clostridium difficile R20291, UniProt A0A9R0CDW8 1-109); assay: EMSA; 20 mM Tris pH 8.0, 120 mM KCl, 10 mM MgCl2, 5 mM DTT, 12.5% glycerol, 125 ug/mL heparin, room temperature; settings: protein: recombinant; tags: N-terminal Strep II; chain copies: 2
[2] = target: cdPadR1 (Clostridium difficile R20291, UniProt A0A9R0CDW8 1-109); assay: EMSA; no significant binding; EMSA: 20 mM Tris pH 8.0, 120 mM KCl, 12.5% glycerol, 10 mM MgCl2, 5 mM DTT, 125 ug/mL heparin (400 ug/mL in competition), room temperature; 8% PAGE in TB; settings: protein: recombinant; tags: N-terminal Strep II; chain copies: 2; blunt

B1: Pr47 (dsDNA)
DNA 1: TCTTGACCTCGATAAGTGTCGTAAGTCAAGGGTAATTTATATATCAGTGAAAAATAATTACATTTAATCTAATGTTTTTAGAGAGGAGGATGCTATGTTA
DNA 2: TAACATAGCATCCTCCTCTCTAAAAACATTAGATTAAATGTAATTATTTTTCACTGATATATAAATTACCCTTGACTTACGACACTTATCGAGGTCAAGA
**Q.** Does B1 bind [1]?
**A.** no binding

B2: Pr101 (dsDNA)
DNA 1: GTACTATACAGCCTGGAGTAG
DNA 2: CTACTCCAGGCTGTATAGTAC
**Q.** Does B2 bind [2]?
**A.** no binding

B3: Pr27 (Pobg) (dsDNA)
DNA 1: ATACATAAAAGGAGTGTTGAGGCACTCCTTTTTCTTATAATACTGATGAATTTATAATGGTATTTTTGGTAATGCTAATTAAAAGTTTTTAATTAAGTAG
DNA 2: CTACTTAATTAAAAACTTTTAATTAGCATTACCAAAAATACCATTATAAATTCATCAGTATTATAAGAAAAAGGAGTGCCTCAACACTCCTTTTATGTAT
**Q.** Does B3 bind [1]?
**A.** binds

B4: Pr46 (dsDNA)
DNA 1: TTTTTTTATTTATAAACATTATTAAAAAAATATAGATGTTTTGGTTATATTCCTTGTCCTTTATAAATAGAATTATATAAACAAAGGAGGAGGACAAGAG
DNA 2: CTCTTGTCCTCCTCCTTTGTTTATATAATTCTATTTATAAAGGACAAGGAATATAACCAAAACATCTATATTTTTTTAATAATGTTTATAAATAAAAAAA
**Q.** Does B4 bind [1]?
**A.** binds

B5: Pr118 (dsDNA)
DNA 1: AACCCGTCATATGGCTTGAGTTTATACTCAAGCTTTTTTTATTGGTATATTTATATATATAAATAATTTAATATAATCAAAATGATGGGGGTATGTTACA
DNA 2: TGTAACATACCCCCATCATTTTGATTATATTAAATTATTTATATATATAAATATACCAATAAAAAAAGCTTGAGTATAAACTCAAGCCATATGACGGGTT
**Q.** Does B5 bind [1]?
**A.** binds

B6: Pr119 (dsDNA)
DNA 1: TTTCAACCACTCCTCTTAGTTTGATTTGGTAAGTTTAGGTCGGTATTTATTATATAATATAAATGAAACATTATATAATGGAAAAATTTCCCAGTAAACT
DNA 2: AGTTTACTGGGAAATTTTTCCATTATATAATGTTTCATTTATATTATATAATAAATACCGACCTAAACTTACCAAATCAAACTAAGAGGAGTGGTTGAAA
**Q.** Does B6 bind [1]?
**A.** binds
